Experimental findings from patent US20250376490 (POSTECH RESEARCH AND BUSINESS DEVELOPMENT FOUNDATION, published 2025) are described below.

The target in series [1] is SARS-CoV-2 spike RBD wild type (SARS-CoV-2, UniProt P0DTC2 SEQ:1-219). As to the kind of experiment: flow.
The target in the next series is Bovine serum albumin (Bos taurus, UniProt P02769 P02769:25-607). Description: flow. As to conditions: tags: Sigma-Aldrich; bead-immobilised.
Bovine serum albumin, sequence (P02769 25-607, one chain of several): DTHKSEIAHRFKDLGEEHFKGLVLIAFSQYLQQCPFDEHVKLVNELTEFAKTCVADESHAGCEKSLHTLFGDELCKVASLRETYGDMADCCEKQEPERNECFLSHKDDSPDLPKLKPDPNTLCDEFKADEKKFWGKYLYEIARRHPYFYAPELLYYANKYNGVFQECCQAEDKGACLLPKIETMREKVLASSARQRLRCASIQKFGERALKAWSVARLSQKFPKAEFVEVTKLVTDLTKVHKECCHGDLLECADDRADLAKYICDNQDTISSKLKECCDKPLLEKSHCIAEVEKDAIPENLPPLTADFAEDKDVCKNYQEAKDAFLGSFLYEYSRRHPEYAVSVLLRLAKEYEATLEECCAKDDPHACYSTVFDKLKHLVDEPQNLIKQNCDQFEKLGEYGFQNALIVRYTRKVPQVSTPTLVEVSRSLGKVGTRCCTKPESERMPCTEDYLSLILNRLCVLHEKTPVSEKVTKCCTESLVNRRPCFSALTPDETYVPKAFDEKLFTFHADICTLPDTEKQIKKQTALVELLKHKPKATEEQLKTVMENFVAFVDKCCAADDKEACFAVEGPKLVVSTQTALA

Take CGCAGCACCCAAGAACAAGGACTGCTTAGGATTGCGATAGGTTCGG (ssDNA) [CoV2-6C3]: the binding result in series [1] is listed as “binds”.

In the case of TCGAGTGGCTTGTTTGTAATGTAGGGTTCCGGTCGTGGGT (ssDNA) [Aptamer-1 core], in series [1], the binding result was “binds”.

B1: R7-02 hybrid (LGKGDFR peptide-DNA) (ssDNA)
DNA: GGAAGAGATGGCGACACGCAATCGTGGGTTGGGGATATAATGGTAAGCTGATCCTGATGG
modifications: 5'-hexynyl clicked to C-terminal azide-lysine tagged LGKGDFR peptide
On to B1, for which the binding result with Bovine serum albumin is recorded as “no binding”.

B2: CoV2-RBD-1C (printed as CoV2-RBD-QC in Table 1) (ssDNA)
DNA: CAGCACCGACCTTGTGCTTTGGGAGTGCTGGTCCAAGGGCGTTAATGGACA
On to B2, for which the binding result in series [1] was “binds”.
